Assays:
[1] = target: cynomolgus PCSK-9 (cynomolgus); experiment: BLI (ForteBio), IgG on AHQ sensor, 100 nM antigen
[2] = target: human PCSK9 (PCSK9 antigen, SEQ ID NO. 53) (human); experiment: MSD-SET, Fab with biotin-PCSK9 in solution, IgG on plate, pH 6.0
murine PCSK-9 (murine) = murine PCSK-9 (murine) (UniProt Q80W65); experiment: MSD-SET, Fab with biotin-PCSK9 in solution, IgG on plate, pH 7.4
[3] = target: human PCSK9 (PCSK9 antigen, SEQ ID NO. 53) (human); experiment: as above
[4] = target: cynomolgus PCSK-9 (cynomolgus); experiment: as above

Binder	Kd [1] [pM]	Kd [2] [pM]	Kd (murine PCSK-9 (murine)) [pM]	Kd [3] [pM]	Kd [4] [pM]
Lodelcizumab (antibody, INN chains, looked up, V domains shown) VH: QVQLVQSGAEVKKPGASVKVSCKASGYTFSTMYMSWVRQAPGQGLEWMGRIDPANEHTNYAQKFQGRVTMTRDTSISTAYMELSRLTSDDTAVYYCARSYYYYNMDYWGQGTLVTVSS VL: QIVLTQSPATLSVSPGERATLSCRASQSVSYMHWYQQKPGQAPRLLIYGVFRRATGIPDRFSGSGSGTDFTLTIGRLEPEDFAVYYCLQWSSDPPTFGQGTKLEIK	2340	–	–	–	–
Bococizumab Fab (Fab, INN chains, looked up, V domains shown, Fab) VH: QVQLVQSGAEVKKPGASVKVSCKASGYTFTSYYMHWVRQAPGQGLEWMGEISPFGGRTNYNEKFKSRVTMTRDTSTSTVYMELSSLRSEDTAVYYCARERPLYASDLWGQGTTVTVSS VL: DIQMTQSPSSLSASVGDRVTITCRASQGISSALAWYQQKPGKAPKLLIYSASYRYTGVPSRFSGSGSGTDFTFTISSLQPEDIATYYCQQRYSLWRTFGQGTKLEIK	–	38	65	21	26
Lodelcizumab Fab (Fab, INN chains, looked up, V domains shown, Fab) VH: QVQLVQSGAEVKKPGASVKVSCKASGYTFSTMYMSWVRQAPGQGLEWMGRIDPANEHTNYAQKFQGRVTMTRDTSISTAYMELSRLTSDDTAVYYCARSYYYYNMDYWGQGTLVTVSS VL: QIVLTQSPATLSVSPGERATLSCRASQSVSYMHWYQQKPGQAPRLLIYGVFRRATGIPDRFSGSGSGTDFTLTIGRLEPEDFAVYYCLQWSSDPPTFGQGTKLEIK	–	–	–	–	100

Source: patent US20200087416A1
